The values that follow come from US20140087995A1 (published 2014).

Numbered stars: 1 amine (or outer) side, 2 acyl side, 3 side chain; on linkers, the order of the positions; unused ones are H or OH. Bridge positions count the residues as written; N and C are the ends. Side chains are listed from the residue outwards. Ends that are not written are not given here. * marks the point of attachment. C20 diacid = O=C(O)CCCCCCCCCCCCCCCCCCC(=O)*; C18 diacid = O=C(O)CCCCCCCCCCCCCCCCC(=O)*; C16 diacid = O=C(O)CCCCCCCCCCCCCCC(=O)*; γGlu = O=C(O)[C@H](CCC(=O)[*:2])N[*:1]

T1: human calcitonin receptor (human, UniProt P30988 25-474)
T1 sequence (looked up): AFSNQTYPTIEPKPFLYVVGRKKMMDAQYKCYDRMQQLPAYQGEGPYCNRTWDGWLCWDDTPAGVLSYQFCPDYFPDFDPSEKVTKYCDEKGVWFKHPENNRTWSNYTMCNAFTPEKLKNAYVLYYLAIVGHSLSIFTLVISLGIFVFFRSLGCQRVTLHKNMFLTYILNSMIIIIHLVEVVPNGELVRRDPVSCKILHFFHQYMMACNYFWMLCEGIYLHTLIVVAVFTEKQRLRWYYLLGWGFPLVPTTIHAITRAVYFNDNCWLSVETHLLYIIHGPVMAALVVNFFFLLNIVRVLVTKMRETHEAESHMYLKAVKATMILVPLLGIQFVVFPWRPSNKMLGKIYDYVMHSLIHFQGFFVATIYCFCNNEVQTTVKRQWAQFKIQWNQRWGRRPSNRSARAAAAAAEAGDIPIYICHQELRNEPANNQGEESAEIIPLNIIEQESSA

B1: N^ε1-[(4S)-4-carboxy-4-(15-carboxypentadecanoylamino)butanoyl]-[Arg17,Pro21,Pro27,His34]-h-amylin (peptide)
peptide: K([γGlu-C16 diacid])CNTATCATQRLANFLRHSSPNFGAIPSSTNVGHNTY-NH2
modifications: disulfide 2-7; N-terminus assumed
SMILES: CC[C@H](C)[C@H](NC(=O)[C@H](C)NC(=O)CNC(=O)[C@H](Cc1ccccc1)NC(=O)[C@H](CC(N)=O)NC(=O)[C@@H]1CCCN1C(=O)[C@H](CO)NC(=O)[C@H](CO)NC(=O)[C@H](Cc1c[nH]cn1)NC(=O)[C@H](CCCNC(=N)N)NC(=O)[C@H](CC(C)C)NC(=O)[C@H](Cc1ccccc1)NC(=O)[C@H](CC(N)=O)NC(=O)[C@H](C)NC(=O)[C@H](CC(C)C)NC(=O)[C@H](CCCNC(=N)N)NC(=O)[C@H](CCC(N)=O)NC(=O)[C@@H](NC(=O)[C@H](C)NC(=O)[C@@H]1CSSC[C@H](NC(=O)[C@@H](N)CCCCNC(=O)CC[C@H](NC(=O)CCCCCCCCCCCCCCC(=O)O)C(=O)O)C(=O)N[C@@H](CC(N)=O)C(=O)N[C@@H]([C@@H](C)O)C(=O)N[C@@H](C)C(=O)N[C@@H]([C@@H](C)O)C(=O)N1)[C@@H](C)O)C(=O)N1CCC[C@H]1C(=O)N[C@@H](CO)C(=O)N[C@@H](CO)C(=O)N[C@H](C(=O)N[C@@H](CC(N)=O)C(=O)N[C@H](C(=O)NCC(=O)N[C@@H](Cc1c[nH]cn1)C(=O)N[C@@H](CC(N)=O)C(=O)N[C@H](C(=O)N[C@@H](Cc1ccc(O)cc1)C(N)=O)[C@@H](C)O)C(C)C)[C@@H](C)O
B2: N^ε1-[(4S)-4-carboxy-4-(19-carboxynonadecanoylamino)butanoyl]-[Ala14,Arg17,Pro21,Pro27,His34]-h-amylin (peptide)
peptide: K([γGlu-C20 diacid])CNTATCATQRLAAFLRHSSPNFGAIPSSTNVGHNTY-NH2
modifications: disulfide 2-7; N-terminus assumed
SMILES: CC[C@H](C)[C@H](NC(=O)[C@H](C)NC(=O)CNC(=O)[C@H](Cc1ccccc1)NC(=O)[C@H](CC(N)=O)NC(=O)[C@@H]1CCCN1C(=O)[C@H](CO)NC(=O)[C@H](CO)NC(=O)[C@H](Cc1c[nH]cn1)NC(=O)[C@H](CCCNC(=N)N)NC(=O)[C@H](CC(C)C)NC(=O)[C@H](Cc1ccccc1)NC(=O)[C@H](C)NC(=O)[C@H](C)NC(=O)[C@H](CC(C)C)NC(=O)[C@H](CCCNC(=N)N)NC(=O)[C@H](CCC(N)=O)NC(=O)[C@@H](NC(=O)[C@H](C)NC(=O)[C@@H]1CSSC[C@H](NC(=O)[C@@H](N)CCCCNC(=O)CC[C@H](NC(=O)CCCCCCCCCCCCCCCCCCC(=O)O)C(=O)O)C(=O)N[C@@H](CC(N)=O)C(=O)N[C@@H]([C@@H](C)O)C(=O)N[C@@H](C)C(=O)N[C@@H]([C@@H](C)O)C(=O)N1)[C@@H](C)O)C(=O)N1CCC[C@H]1C(=O)N[C@@H](CO)C(=O)N[C@@H](CO)C(=O)N[C@H](C(=O)N[C@@H](CC(N)=O)C(=O)N[C@H](C(=O)NCC(=O)N[C@@H](Cc1c[nH]cn1)C(=O)N[C@@H](CC(N)=O)C(=O)N[C@H](C(=O)N[C@@H](Cc1ccc(O)cc1)C(N)=O)[C@@H](C)O)C(C)C)[C@@H](C)O
notes: also called compound 93
B3: N^ε1-[(4S)-4-carboxy-4-(17-carboxyheptadecanoylamino)butanoyl]-[Arg17,Pro21,Pro27,His34]-h-amylin (peptide)
peptide: K([γGlu-C18 diacid])CNTATCATQRLANFLRHSSPNFGAIPSSTNVGHNTY-NH2
modifications: disulfide 2-7; N-terminus assumed
SMILES: CC[C@H](C)[C@H](NC(=O)[C@H](C)NC(=O)CNC(=O)[C@H](Cc1ccccc1)NC(=O)[C@H](CC(N)=O)NC(=O)[C@@H]1CCCN1C(=O)[C@H](CO)NC(=O)[C@H](CO)NC(=O)[C@H](Cc1c[nH]cn1)NC(=O)[C@H](CCCNC(=N)N)NC(=O)[C@H](CC(C)C)NC(=O)[C@H](Cc1ccccc1)NC(=O)[C@H](CC(N)=O)NC(=O)[C@H](C)NC(=O)[C@H](CC(C)C)NC(=O)[C@H](CCCNC(=N)N)NC(=O)[C@H](CCC(N)=O)NC(=O)[C@@H](NC(=O)[C@H](C)NC(=O)[C@@H]1CSSC[C@H](NC(=O)[C@@H](N)CCCCNC(=O)CC[C@H](NC(=O)CCCCCCCCCCCCCCCCC(=O)O)C(=O)O)C(=O)N[C@@H](CC(N)=O)C(=O)N[C@@H]([C@@H](C)O)C(=O)N[C@@H](C)C(=O)N[C@@H]([C@@H](C)O)C(=O)N1)[C@@H](C)O)C(=O)N1CCC[C@H]1C(=O)N[C@@H](CO)C(=O)N[C@@H](CO)C(=O)N[C@H](C(=O)N[C@@H](CC(N)=O)C(=O)N[C@H](C(=O)NCC(=O)N[C@@H](Cc1c[nH]cn1)C(=O)N[C@@H](CC(N)=O)C(=O)N[C@H](C(=O)N[C@@H](Cc1ccc(O)cc1)C(N)=O)[C@@H](C)O)C(C)C)[C@@H](C)O
B4: N^ε1-[(4S)-4-carboxy-4-(19-carboxynonadecanoylamino)butanoyl]-[Asp14,Arg17,Pro21,Pro27,Pro34,Glu35]-h-amylin (peptide)
peptide: K([γGlu-C20 diacid])CNTATCATQRLADFLRHSSPNFGAIPSSTNVGPETY-NH2
modifications: disulfide 2-7; N-terminus assumed
SMILES: CC[C@H](C)[C@H](NC(=O)[C@H](C)NC(=O)CNC(=O)[C@H](Cc1ccccc1)NC(=O)[C@H](CC(N)=O)NC(=O)[C@@H]1CCCN1C(=O)[C@H](CO)NC(=O)[C@H](CO)NC(=O)[C@H](Cc1c[nH]cn1)NC(=O)[C@H](CCCNC(=N)N)NC(=O)[C@H](CC(C)C)NC(=O)[C@H](Cc1ccccc1)NC(=O)[C@H](CC(=O)O)NC(=O)[C@H](C)NC(=O)[C@H](CC(C)C)NC(=O)[C@H](CCCNC(=N)N)NC(=O)[C@H](CCC(N)=O)NC(=O)[C@@H](NC(=O)[C@H](C)NC(=O)[C@@H]1CSSC[C@H](NC(=O)[C@@H](N)CCCCNC(=O)CC[C@H](NC(=O)CCCCCCCCCCCCCCCCCCC(=O)O)C(=O)O)C(=O)N[C@@H](CC(N)=O)C(=O)N[C@@H]([C@@H](C)O)C(=O)N[C@@H](C)C(=O)N[C@@H]([C@@H](C)O)C(=O)N1)[C@@H](C)O)C(=O)N1CCC[C@H]1C(=O)N[C@@H](CO)C(=O)N[C@@H](CO)C(=O)N[C@H](C(=O)N[C@@H](CC(N)=O)C(=O)N[C@H](C(=O)NCC(=O)N1CCC[C@H]1C(=O)N[C@@H](CCC(=O)O)C(=O)N[C@H](C(=O)N[C@@H](Cc1ccc(O)cc1)C(N)=O)[C@@H](C)O)C(C)C)[C@@H](C)O
B5: N^ε1-[(4S)-4-carboxy-4-(19-carboxynonadecanoylamino)butanoyl]-[Glu14,Arg17,Pro21,Pro27,His35]-h-amylin (peptide)
peptide: K([γGlu-C20 diacid])CNTATCATQRLAEFLRHSSPNFGAIPSSTNVGSHTY-NH2
modifications: disulfide 2-7; N-terminus assumed
SMILES: CC[C@H](C)[C@H](NC(=O)[C@H](C)NC(=O)CNC(=O)[C@H](Cc1ccccc1)NC(=O)[C@H](CC(N)=O)NC(=O)[C@@H]1CCCN1C(=O)[C@H](CO)NC(=O)[C@H](CO)NC(=O)[C@H](Cc1c[nH]cn1)NC(=O)[C@H](CCCNC(=N)N)NC(=O)[C@H](CC(C)C)NC(=O)[C@H](Cc1ccccc1)NC(=O)[C@H](CCC(=O)O)NC(=O)[C@H](C)NC(=O)[C@H](CC(C)C)NC(=O)[C@H](CCCNC(=N)N)NC(=O)[C@H](CCC(N)=O)NC(=O)[C@@H](NC(=O)[C@H](C)NC(=O)[C@@H]1CSSC[C@H](NC(=O)[C@@H](N)CCCCNC(=O)CC[C@H](NC(=O)CCCCCCCCCCCCCCCCCCC(=O)O)C(=O)O)C(=O)N[C@@H](CC(N)=O)C(=O)N[C@@H]([C@@H](C)O)C(=O)N[C@@H](C)C(=O)N[C@@H]([C@@H](C)O)C(=O)N1)[C@@H](C)O)C(=O)N1CCC[C@H]1C(=O)N[C@@H](CO)C(=O)N[C@@H](CO)C(=O)N[C@H](C(=O)N[C@@H](CC(N)=O)C(=O)N[C@H](C(=O)NCC(=O)N[C@@H](CO)C(=O)N[C@@H](Cc1c[nH]cn1)C(=O)N[C@H](C(=O)N[C@@H](Cc1ccc(O)cc1)C(N)=O)[C@@H](C)O)C(C)C)[C@@H](C)O
B6: N^ε1-[(4S)-4-carboxy-4-(19-carboxynonadecanoylamino)butanoyl]-[Glu14,Arg17,Pro21,Pro27,His34,Glu35]-h-amylin (peptide)
peptide: K([γGlu-C20 diacid])CNTATCATQRLAEFLRHSSPNFGAIPSSTNVGHETY-NH2
modifications: disulfide 2-7; N-terminus assumed
SMILES: CC[C@H](C)[C@H](NC(=O)[C@H](C)NC(=O)CNC(=O)[C@H](Cc1ccccc1)NC(=O)[C@H](CC(N)=O)NC(=O)[C@@H]1CCCN1C(=O)[C@H](CO)NC(=O)[C@H](CO)NC(=O)[C@H](Cc1c[nH]cn1)NC(=O)[C@H](CCCNC(=N)N)NC(=O)[C@H](CC(C)C)NC(=O)[C@H](Cc1ccccc1)NC(=O)[C@H](CCC(=O)O)NC(=O)[C@H](C)NC(=O)[C@H](CC(C)C)NC(=O)[C@H](CCCNC(=N)N)NC(=O)[C@H](CCC(N)=O)NC(=O)[C@@H](NC(=O)[C@H](C)NC(=O)[C@@H]1CSSC[C@H](NC(=O)[C@@H](N)CCCCNC(=O)CC[C@H](NC(=O)CCCCCCCCCCCCCCCCCCC(=O)O)C(=O)O)C(=O)N[C@@H](CC(N)=O)C(=O)N[C@@H]([C@@H](C)O)C(=O)N[C@@H](C)C(=O)N[C@@H]([C@@H](C)O)C(=O)N1)[C@@H](C)O)C(=O)N1CCC[C@H]1C(=O)N[C@@H](CO)C(=O)N[C@@H](CO)C(=O)N[C@H](C(=O)N[C@@H](CC(N)=O)C(=O)N[C@H](C(=O)NCC(=O)N[C@@H](Cc1c[nH]cn1)C(=O)N[C@@H](CCC(=O)O)C(=O)N[C@H](C(=O)N[C@@H](Cc1ccc(O)cc1)C(N)=O)[C@@H](C)O)C(C)C)[C@@H](C)O
notes: also called compound 107

The assay has as its target T1, human calcitonin receptor. In words: cell-based or functional assay.
For the molecule B1, the “hCTR funct. EC50 (pM)” value is 2210 pM. In the case of B2 it was 1140 pM. With B3, the “hCTR funct. EC50 (pM)” value was 5850 pM. With K([γGlu-C20 diacid])CNTATCATQRLAEFLRHSSPNFGAIPSSTNVGPHTY-NH2 (disulfide 2-7) the figure was 1450 pM; with B4, 1120 pM. In the case of B5 it was 5580 pM; in that of B6, 2540 pM.
